Reference: US20060142195

Target: T1, fibrin, P02671
T1 chain 1: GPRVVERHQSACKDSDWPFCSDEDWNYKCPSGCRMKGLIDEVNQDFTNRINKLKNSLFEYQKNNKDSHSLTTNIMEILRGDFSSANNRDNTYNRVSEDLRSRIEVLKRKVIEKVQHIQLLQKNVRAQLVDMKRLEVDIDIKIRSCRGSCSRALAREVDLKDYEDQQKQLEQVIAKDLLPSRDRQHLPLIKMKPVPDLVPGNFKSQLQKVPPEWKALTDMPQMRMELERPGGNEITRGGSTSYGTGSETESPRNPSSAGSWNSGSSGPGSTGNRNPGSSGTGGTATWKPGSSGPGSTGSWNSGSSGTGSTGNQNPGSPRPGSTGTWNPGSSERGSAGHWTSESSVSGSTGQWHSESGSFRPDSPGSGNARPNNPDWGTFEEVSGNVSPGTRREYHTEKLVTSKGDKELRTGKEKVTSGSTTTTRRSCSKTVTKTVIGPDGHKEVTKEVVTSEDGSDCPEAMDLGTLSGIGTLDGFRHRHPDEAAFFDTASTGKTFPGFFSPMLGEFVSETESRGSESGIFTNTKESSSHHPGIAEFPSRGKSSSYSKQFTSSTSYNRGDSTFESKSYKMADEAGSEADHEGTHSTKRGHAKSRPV
T1 chain 2: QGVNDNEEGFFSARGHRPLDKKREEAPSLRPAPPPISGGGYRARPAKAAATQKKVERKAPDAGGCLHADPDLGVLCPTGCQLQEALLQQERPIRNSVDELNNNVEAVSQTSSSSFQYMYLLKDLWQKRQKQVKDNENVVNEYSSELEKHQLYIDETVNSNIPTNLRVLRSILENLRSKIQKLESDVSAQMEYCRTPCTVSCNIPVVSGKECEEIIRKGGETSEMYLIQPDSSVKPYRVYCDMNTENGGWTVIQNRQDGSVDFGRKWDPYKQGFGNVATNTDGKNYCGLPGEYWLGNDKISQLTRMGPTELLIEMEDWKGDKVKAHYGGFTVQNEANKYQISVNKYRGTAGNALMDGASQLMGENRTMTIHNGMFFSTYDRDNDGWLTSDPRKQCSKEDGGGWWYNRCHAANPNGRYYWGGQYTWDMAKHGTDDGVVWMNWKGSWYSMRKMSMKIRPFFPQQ
T1 chain 3: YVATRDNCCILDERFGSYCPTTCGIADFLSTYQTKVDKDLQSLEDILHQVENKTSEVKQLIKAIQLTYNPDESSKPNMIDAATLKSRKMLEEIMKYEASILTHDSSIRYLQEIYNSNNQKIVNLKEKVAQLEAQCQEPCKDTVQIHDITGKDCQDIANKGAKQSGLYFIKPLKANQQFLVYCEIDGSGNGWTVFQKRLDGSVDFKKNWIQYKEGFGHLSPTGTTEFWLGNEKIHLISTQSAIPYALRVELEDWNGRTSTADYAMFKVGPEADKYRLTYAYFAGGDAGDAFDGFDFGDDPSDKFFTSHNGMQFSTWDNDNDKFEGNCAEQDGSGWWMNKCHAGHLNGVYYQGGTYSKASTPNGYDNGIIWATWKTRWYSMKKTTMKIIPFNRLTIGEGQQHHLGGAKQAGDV

B1: modified tissue plasminogen activator with an amino acid sequence according to SEQ ID No. 1 (protein)
chain: AYGVACKDEITQMTYRRQESWLRPEVRSKRVEHCQCDRGQARCHTVPVKSCSEPRCFNGGTCQQALYFSDFVCQCPEGFAGKCCEIDTRATCYEDQGISYRGTWSTAESGAECTNWNSSALAQKPYSGRRPDAIRLGLGNHNYCRNPDRDSKPWCYVFKAGKYSSEFCSTPACSSTCGLRQYSQPQFHSTGGLFADIASHPWQAAIFAKHRRSPGERFLCGGILISSCWILSAAHCFQERFPPHHLTVILGRTYRVVPGEEEQKFEVEKYIVHKEFDDDTYDNDIALLQLKSDSSRCAQESSVVRTVCLPPADLQLPDWTECELSGYGKHEALSPFYSERLKEAHVRLYPSSRCTSQHLLNRTVTDNMLCAGDTRSGGPQANLHDACQGDSGGPLVCLNDGRMTLVGIISWGLGCGQKDVPGVYTKVTNYLDWIRDNMRP
B1 was tested, and the “fibrin specificity (semi quantitative tests)” value was “showed a increased fibrin specificity in comparison to the wild type t-PA”.
